The target of the assay is T1, CD20 on the CD20+ human Daudi Burkitt lymphoma cell line (human, UniProt P11836 1-297).
T1 construct: whole, on cells; also called Daudi cells
T1 sequence (looked up): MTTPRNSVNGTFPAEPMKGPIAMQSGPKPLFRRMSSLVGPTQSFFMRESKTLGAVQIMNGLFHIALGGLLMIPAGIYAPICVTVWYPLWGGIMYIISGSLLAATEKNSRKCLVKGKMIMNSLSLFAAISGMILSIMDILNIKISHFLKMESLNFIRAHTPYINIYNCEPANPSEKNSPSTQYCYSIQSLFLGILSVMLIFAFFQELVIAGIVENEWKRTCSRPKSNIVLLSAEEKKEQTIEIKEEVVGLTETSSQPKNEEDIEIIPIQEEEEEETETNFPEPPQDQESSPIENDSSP
Description: FACS binding assay on CD20+ Daudi cells, serial dilutions of antibody. On the technique in general: Flow cytometry measures light scatter and fluorescence of single cells or particles in a stream.

We go through one molecule from patent publication WO2008044032A2 (dated 2008).

B1: chimeric anti-CD20 antibody (unmodified chimeric Leu 16) (antibody, human IgG1, V domains shown)
VH: EVQLQQSGAELVKPGASVKMSCKASGYTFTSYNMHWVKQTPGQGLEWIGAIYPGNGDTSYNQKFKGKATLTADKSSSTAYMQLSSLTSEDSADYYCARSNYYGSSYWFFDVWGAGTTVTVSS
VL: DIVLTQSPAILSASPGEKVTMTCRASSSVNYMDWYQKKPGSSPKPWIYATSNLASGVPARFSGSGSGTSYSLTISRVEAEDAATYYCQQWSFNPPTFGGGTKLEIK
notes: Only the variable regions are printed
For B1, the binding result is reported as “binds”.
